Measurements reported in patent US20080182978A1, “ANTI-NGF ANTIBODIES AND METHODS USING SAME” (RINAT NEUROSCIENCE CORP, priority 2002, published 2008).
“Also recorded” adds a separate entry of the source.

Legend:
[1] = molecular target: T1, human NGF (Homo sapiens, UniProt P01138); assay: BIAcore screening assay of Fab library clones (koff); format: binding; conditions: Table 8: CDR L3 H3 combination mutations, H19-L129 template (H1H2L1L2 matured)
Outline: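 Fab library clones expressed in E. coli (1 mM IPTG, 5 h, 30° C), lysed by freeze-thaw in HBS-EP; lysates injected at 50 μl/min for 2 min over CM5-immobilised human NGF (500-600 RU). Single-exponential koff fitted from 10-15 min dissociation; Fab presence checked via anti-penta-His channel.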

[2] = molecular target: T1, human NGF; assay: Mouse E17/18 trigeminal neuron survival assay, NGF; format: cell-based; conditions: saturating NGF (400 pM); 48 hours
Method: (§1) The ability of antibody E3 to specifically block NGF activity was evaluated by measurement of the capacity of the antibody to inhibit survival of mouse E17/18 trigeminal neurons in vitro in the presence of saturating concentrations of NGF, the NGF-related neurotrophin NT3, or the NGF-unrelated neurotrophic factor, macrophage stimulating protein (MSP). The survival of mouse E17/18 trigeminal neurons is a sensitive assay to evaluate the NGF-blocking activity of anti-NGF antagonist antibodies because NGF is required to support survival of these neurons at higher concentrations than the level of NGF required to support survival of E13.5 TG neurons).
(§2) The survival assay was conducted as follows: time mated pregnant Swiss Webster female mice were euthanised by CO2 inhalation. The uterine horns were removed and the embryos (at embryonic day 17 or 18) were extracted and decapitated. The trigeminal and nodose ganglia were dissected and cleaned. The ganglia were then trypsinised, mechanically dissociated and plated at a density of 100-300 cells per well in defined, serum-free medium in 4-well plates (Greiner) coated with poly-L-ornithine and laminin.
(§3) E17/18 trigeminal neurons were grown either without added neurotrophic factors (negative control) or in the presence of saturating concentrations of human NGF (400 pM and 15 pM) (positive control); NT3 (400 pM); or MSP (600 pM). […]

[3] = molecular target: macrophage stimulating protein (MSP) (Homo sapiens, UniProt P26927); assay: Mouse E17/18 trigeminal neuron survival assay, MSP; format: cell-based; conditions: MSP 600 pM; antibody up to 200 nM; 48 hours
Method: as §1, §2, §3

T1 sequence (P01138 122-241): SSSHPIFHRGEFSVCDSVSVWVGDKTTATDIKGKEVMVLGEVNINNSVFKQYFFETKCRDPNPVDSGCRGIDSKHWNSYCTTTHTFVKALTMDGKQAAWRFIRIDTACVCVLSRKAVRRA
Sequence of macrophage stimulating protein (MSP) (P26927 19-711, species assumed): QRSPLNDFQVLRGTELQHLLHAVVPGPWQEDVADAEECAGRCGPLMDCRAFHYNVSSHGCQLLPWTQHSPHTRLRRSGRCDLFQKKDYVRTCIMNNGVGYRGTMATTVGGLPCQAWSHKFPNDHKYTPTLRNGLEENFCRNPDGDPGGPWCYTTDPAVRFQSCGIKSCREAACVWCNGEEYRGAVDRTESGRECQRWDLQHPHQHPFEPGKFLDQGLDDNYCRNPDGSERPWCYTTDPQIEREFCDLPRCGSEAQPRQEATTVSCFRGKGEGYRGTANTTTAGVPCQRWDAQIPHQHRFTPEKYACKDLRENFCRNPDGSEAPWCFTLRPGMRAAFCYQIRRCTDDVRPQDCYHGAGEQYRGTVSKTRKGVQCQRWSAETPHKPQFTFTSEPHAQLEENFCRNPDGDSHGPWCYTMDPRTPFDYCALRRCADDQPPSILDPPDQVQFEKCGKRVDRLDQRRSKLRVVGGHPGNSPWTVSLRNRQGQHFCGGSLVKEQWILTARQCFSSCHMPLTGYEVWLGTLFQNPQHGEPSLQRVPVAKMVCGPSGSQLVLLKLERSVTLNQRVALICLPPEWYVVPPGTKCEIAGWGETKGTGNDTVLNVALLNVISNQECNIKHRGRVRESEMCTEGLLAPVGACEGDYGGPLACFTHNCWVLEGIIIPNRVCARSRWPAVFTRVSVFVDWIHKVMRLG

koff [1]: 1.2e-05 s⁻¹
B1: E3: humanized, affinity matured anti-NGF antagonist antibody; variable regions SEQ ID NO:1 and 2; human IgG2a (A330P331 to S330S331), kappa (antibody, V domains shown)
VH: QVQLQESGPGLVKPSETLSLTCTVSGFSLIGYDLNWIRQPPGKGLEWIGIIWGDGTTDYNSAVKSRVTISKDTSKNQFSLKLSSVTAADTAVYYCARGGYWYATSYYFDYWGQGTLVTVS
VL: DIQMTQSPSSLSASVGDRVTITCRASQSISNNLNWYQQKPGKAPKLLIYYTSRFHSGVPSRFSGSGSGTDFTFTISSLQPEDIATYYCQQEHTLPYTFGQGTKLEIKRT
modifications: human IgG2a constant (A330S/P331S) and kappa constant missing
survival of E17/18 trigeminal neurons promoted by NGF [2]: completely blocked; also recorded: totally blocked
survival of E17/18 trigeminal neurons promoted by MSP [3]: had no effect; also recorded: did not inhibit
